Experimental data as given in US20250277029A1, “CANNABINOID TYPE 1 RECEPTOR BINDING PROTEINS AND USES THEREOF” (AMGEN INC., priority 2022, published 2025).

These binders were tested against T1, XCR1-SMALP (assay: flow cytometry, yeast-displayed Fab, 50 nM XCR1 SMALP).
T1 sequence (P46094 whole entry, species assumed, looked up): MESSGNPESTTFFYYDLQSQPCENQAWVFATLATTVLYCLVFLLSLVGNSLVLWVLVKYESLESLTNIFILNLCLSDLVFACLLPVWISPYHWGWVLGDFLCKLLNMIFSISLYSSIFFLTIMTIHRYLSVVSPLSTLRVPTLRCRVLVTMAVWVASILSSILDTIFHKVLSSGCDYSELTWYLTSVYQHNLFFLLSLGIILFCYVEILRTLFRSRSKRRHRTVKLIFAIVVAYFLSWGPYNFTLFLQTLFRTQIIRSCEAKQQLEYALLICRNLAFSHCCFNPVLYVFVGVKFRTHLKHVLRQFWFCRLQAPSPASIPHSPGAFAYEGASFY

Row | Binder | relative binding fold change compared to LIBC523797-1(Fab)
1 | LIBC673952-1 (Fab on yeast) (Fab, V domains shown) VH: QVQLQESGPGLVKPSQTLSLTCTVSGGSIRRGGDYWSWIRQHPGKGLEWIGHVYYTGQTTYNPSFRGRVTISVNTYKNQFSLKLSSVTAADTAVYYCARDYDILTGYSYYYYGLDVWGQGTTVTVSS VL: DIVMTQSPLSLPVTPGEPASISCRSSQSLLHRSGYNYLDWYLQKPGQSPQLLIYQGSNRASGVPDRFSGSGSGTDFTLKISRVEAEDVGVYYCRQARALPRTFGQGTKVEIKR | 0.59 fold
2 | LIBC674090-1 (Fab on yeast) (Fab, V domains shown) VH: QVQLQESGPGLVKPSQTLSLTCTVSGGSIRRGGDYWSWIRQHPGKGLEWIGHIYYAGSTAYNPNFRGRVRISVNTYKNQFSLKLSSVTAADTAVYYCARGYDTSGYSYYYYGLDVWGQGTTVTVSS VL: DIVMTQSPLSLPVTPGEPASISCRSSQSLLHRSGYNYLDWYLQKPGQSPQLLIYQGSNRASGVPDRFSGSGSGTDFTLKISRVEAEDVGVYYCMQSLQTPRTFGQGTKVEIKR | 0.74 fold
3 | LIBC674200-1 (Fab on yeast) (Fab, V domains shown) VH: QVQLQESGPGLVKPSQTLSLTCTVSGGSIRRGGDYWSWIRQHPGKGLEWIGHVYYTGQTAYNPNFRNRVRISVNTYKNQFSLKLSSVTAADTAVYYCARGYDVSGYSYYYYGMDVWGQGTTVTVSS VL: DIVMTQSPLSLPVTPGEPASISCRSSQSLLHRSGYNYLDWYLQKPGQSPQLLIYLGSNRASGVPGRFSGSGSGTDFTLKISRVEAEDVGVYYCMQSLQTPRTFGQGTKVEIKR | 0.79 fold
4 | LIBC674229-1 (Fab on yeast) (Fab, V domains shown) VH: QVQLQESGPGLVKPSQTLSLTCTVSGGSIRRGGDYWSWIRQHPGKGLEWIGHIYQTGQTKYNPSFKGRVRISVNTYKNQFSLKLSSVTAADTAVYYCARGYDVSGYSYYYYGMDVWGQGTTVTVSS VL: DIVMTQSPLSLPVTPGEPASISCRSSQSLLHRSGYNYLDWYLQKPGQSPQLLIYQGSNRASGVPDRFSGSGSGTDFTLKISRVEAEDVGVYYCMQSLQTPRTFGQGTKVEIKR | 0.8 fold

These binders were tested against T2, XCR1-SMALP-GFP (assay: flow cytometry, yeast-displayed Fab, 25 nM XCR1-SMALP-GFP, after background subtraction).
T2 sequence (P46094 whole entry, species assumed, looked up): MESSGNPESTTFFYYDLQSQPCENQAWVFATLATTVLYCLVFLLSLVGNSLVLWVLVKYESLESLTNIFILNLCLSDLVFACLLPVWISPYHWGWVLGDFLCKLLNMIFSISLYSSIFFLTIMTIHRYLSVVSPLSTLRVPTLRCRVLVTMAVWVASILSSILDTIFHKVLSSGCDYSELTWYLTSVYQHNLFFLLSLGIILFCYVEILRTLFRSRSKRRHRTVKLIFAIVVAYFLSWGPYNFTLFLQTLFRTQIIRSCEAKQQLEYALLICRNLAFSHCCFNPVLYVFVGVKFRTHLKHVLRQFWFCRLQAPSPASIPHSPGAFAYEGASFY

Row | Binder | Relative binding fold change compared to LIBC528116 (Fab)
5 | LIBC680562-1 (yeast-displayed Fab) (Fab, V domains shown) VH: QVQLQESGPGLVKPSQTLSLTCTVSGGSIRRGGDYWAWIRQHPGKGLEWIGHIYQTGSTNYNPRFKGRATISVNTYKNQFSLKLSSVTAADTAVYYCARNYDTLTGYSYYYYGMDVWGQGTTVTVSS VL: DIQMTQSPSSLSASVGDRVTITCRASQSISSYLNWYQQKPGKAPKLLIYSARRLSSGVPSRFSGSGSGTDFTLTISSLQPEDFATYYCQQYAKSPITFGGGTKVEIKR | 0.64 fold
6 | LIBC680574-1 (yeast-displayed Fab) (Fab, V domains shown) VH: QVQLQESGPGLVKPSQTLSLTCTVSGGSIRRGGDYWAWIRQHPGKGLEWIGHVYYTGSTKYNPSFKDRATISVNTYKNQFSLKLSSVTAADTAVYYCARNYDTLTGYSYYYYGMDVWGQGTTVTVSS VL: DIQMTQSPSSLSASVGDRVTITCRASQSISSYLNWYQQKPGKAPKLLIYGARRLGSGVPSRFSGSGSGTDFTLTISSLQPEDFATYYCQQYSSLPVTFGGGTKVEIKR | 0.56 fold
7 | LIBC680800-1 (yeast-displayed Fab) (Fab, V domains shown) VH: QVQLQESGPGLVKPSQTLSLTCTVSGGSIRRGGDYWAWIRQHPGKGLEWIGHIYQTGSTNYNPRFKGRATISVNTYKNQFSLKLSSVTAADTAVYYCARNYDTLTGYSYYYYGMDVWGQGTTVTVSS VL: DIQMTQSPSSLSASVGDRVTITCRASQSISSYLNWYQQKPGKAPKLLIYSARALSSGVPSRFSGSGSGTDFTLTISSLQPEDFATYYCQQYRKFPLTFGGGTKVEIKR | 0.47 fold
8 | LIBC680812-1 (yeast-displayed Fab) (Fab, V domains shown) VH: QVQLQESGPGLVKPSQTLSLTCTVSGGSIRRGGDYWGWIRQHPGKGLEWIGHVYQTGSTKYNPSFKDRATISVNTYKNQFSLKLSSVTAADTAVYYCARNYDTLTGYSYYYYGMDVWGQGTTVTVSS VL: DIQMTQSPSSLSASVGDRVTITCRASQSISSYLNWYQQKPGKAPKLLIYSARRLSSGVPSRFSGSGSGTDFTLTISSLQPEDFATYYCQQYRSYPITFGGGTKVEIKR | 0.59 fold
9 | LIBC681593-1 (yeast-displayed Fab) (Fab, V domains shown) VH: QVQLQESGPGLVKPSQTLSLTCTVSGGSIRRGGDYWAWIRQHPGKGLEWIGHIYQTGSTNYNPRFKGRATISVNTYKNQFSLKLSSVTAADTAVYYCARNYDTLTGYSYYYYGMDVWGQGTTVTVSS VL: DIQMTQSPSSLSASVGDRVTITCRASQSISSYLNWYQQKPGKAPKLLIYNARRLGSGVPSRFSGSGSGTDFTLTISSLQPEDFATYYCQQYRSSPVTFGGGTKVEIKR | 0.72 fold
10 | LIBC681594-1 (yeast-displayed Fab) (Fab, V domains shown) VH: QVQLQESGPGLVKPSQTLSLTCTVSGGSIRRGGDYWAWIRQHPGKGLEWIGHIYQTGSTNYNPRFKGRATISVNTYKNQFSLKLSSVTAADTAVYYCARNYDTLTGYSYYYYGMDVWGQGTTVTVSS VL: DIQMTQSPSSLSASVGDRVTITCRASQSISSYLNWYQQKPGKAPKLLIYKARKLSSGVPSRFSGSGSGTDFTLTISSLQPEDFATYYCQQFGSMPLTFGGGTKVEIKR | 1.04 fold
